Reference: patent US20200317802A1 (Merck KGaA, published 2020)
One block for each binder: values may come before it.

How the values were obtained:
[1] = biological target: T1, recombinant human ADAMTS5 (R&D Systems cat #2198-AD) (human, UniProt Q9UNA0 262-622, limits assumed); assay: cell-based or functional assay
T1 sequence: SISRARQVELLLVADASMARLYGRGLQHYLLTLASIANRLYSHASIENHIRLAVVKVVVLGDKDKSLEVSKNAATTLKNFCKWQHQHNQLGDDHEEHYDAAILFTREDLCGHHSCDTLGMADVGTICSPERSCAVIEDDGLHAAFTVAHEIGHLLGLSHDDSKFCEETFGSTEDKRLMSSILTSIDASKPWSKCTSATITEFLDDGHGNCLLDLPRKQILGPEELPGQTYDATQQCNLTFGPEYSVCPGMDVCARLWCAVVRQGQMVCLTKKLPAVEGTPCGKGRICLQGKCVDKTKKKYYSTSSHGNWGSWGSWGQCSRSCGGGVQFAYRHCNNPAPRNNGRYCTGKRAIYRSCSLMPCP

[2] = biological target: T1, recombinant human ADAMTS5 (R&D Systems …); assay: SPR kinetics, Biacore T100, ADAMTS5 immobilised
Protocol: (§1) For referencing, affinity for human ADAMTS5 was also determined. Thereto, rat and human ADAMTS5 were immobilized onto a CM5 chip via amine coupling, using EDC and NHS chemistry. Purified Nanobodies were injected for 2 minutes at different concentrations (between 1 and 1000 nM) and allowed to dissociate for 25 min at a flow rate of 45 μl/min. The kinetic constants were calculated from the sensorgrams using the BIAEvaluation software (1:1 interaction).

rat recombinant ADAMTS5 = biological target: T2, rat recombinant ADAMTS5 (rat, UniProt Q9R001 262-618 (mouse entry)); assay: SPR kinetics, Biacore T100, ADAMTS5 immobilised
T2 construct: in house, HEK293, His tag in the entry
T2 chain: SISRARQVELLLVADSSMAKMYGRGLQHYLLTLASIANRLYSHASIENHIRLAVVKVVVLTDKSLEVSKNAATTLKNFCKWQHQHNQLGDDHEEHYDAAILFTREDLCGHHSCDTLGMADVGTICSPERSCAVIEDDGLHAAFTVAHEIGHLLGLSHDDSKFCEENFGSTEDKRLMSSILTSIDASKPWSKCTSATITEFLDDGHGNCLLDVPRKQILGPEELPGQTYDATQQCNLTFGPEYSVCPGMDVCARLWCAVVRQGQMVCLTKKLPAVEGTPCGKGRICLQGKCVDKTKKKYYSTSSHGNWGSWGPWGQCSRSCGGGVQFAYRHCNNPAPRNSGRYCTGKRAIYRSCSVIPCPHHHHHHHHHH
Protocol: as §1

AlphaLISA IC50, - HSA [1]: 0.1 nM
Kd [2]: 3.5 nM
Kd (rat recombinant ADAMTS5): 1.7 nM
B1: Nanobody 049 (11B06 (N52S)) (VHH)
VHH: EVQLVESGGGLVQAGGSLRLSCAASGLTFRRNAMGWFRQAPGKERELLAGISWSGGTTYYVDSVKGRFTISRDNAKNTVDLQMISPKPEDTAVYYCAADGDIGTLVNDENPRYWGQGTLVTVSS
notes: N-glycosylation motif knocked out; also called construct 049

Kd [2]: 4.9 nM
Kd (rat recombinant ADAMTS5): 5.3 nM
B2: Nanobody 093 (3F04 (N100fQ)) (VHH)
VHH: EVQLVESGGGSVQAGGSLRLSCVASGRYPMAWFRQAPGKEREFVAGVSWGGDRTYYADSVQGRFTVSRDYAKNTLYLQMNSLKPEDAAVYYCAGDPWGRLFRVKDQYSDWGQGTLVTVSS
notes: N-glycosylation motif knocked out; also called construct 093
